# Assay results taken from PMC10397247.
# T1: 4H687-AA
# T1 chain: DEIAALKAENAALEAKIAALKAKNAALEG
# T2: 4H717-AA
# T2 chain: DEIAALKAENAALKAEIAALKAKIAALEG
# T3: 4H797-AA
# T3 chain: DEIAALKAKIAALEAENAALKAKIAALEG
# T4: 4H883-AA
# T4 chain: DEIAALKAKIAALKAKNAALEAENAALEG
# T5: 4H918-AA
# T5 chain: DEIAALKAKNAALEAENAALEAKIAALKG
# T6: 4H953-AA
# T6 chain: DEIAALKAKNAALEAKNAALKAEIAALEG
# T7: 4H967-AA
# T7 chain: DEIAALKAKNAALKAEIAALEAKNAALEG
# T8: P9bH1
# T8 chain: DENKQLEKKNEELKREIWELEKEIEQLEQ
# T9: O4-bA
# T9 chain: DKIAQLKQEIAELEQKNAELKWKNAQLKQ
# T10: O5-bA
# T10 chain: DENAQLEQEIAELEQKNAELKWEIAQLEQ
# T11: O6-bA
# T11 chain: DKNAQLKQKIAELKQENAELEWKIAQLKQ
# T12: O7-bA
# T12 chain: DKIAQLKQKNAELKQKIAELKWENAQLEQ
# T13: O8-bA
# T13 chain: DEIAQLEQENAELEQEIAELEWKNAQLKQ
# T14: O9-bA
# T14 chain: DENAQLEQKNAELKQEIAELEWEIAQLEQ
# T15: 4H355-AA
# T15 chain: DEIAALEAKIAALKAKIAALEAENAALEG
# T16: 4H3651-AA
# T16 chain: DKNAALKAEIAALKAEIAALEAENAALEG
# T17: 4H3705-AA
# T17 chain: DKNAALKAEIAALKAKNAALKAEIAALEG
# T18: 4H3782-AA
# T18 chain: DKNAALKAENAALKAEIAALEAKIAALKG
# T19: 4H465-AA
# T19 chain: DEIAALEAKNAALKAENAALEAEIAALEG
# T20: 4H486-AA
# T20 chain: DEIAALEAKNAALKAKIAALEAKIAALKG
# T21: 4H535-AA
# T21 chain: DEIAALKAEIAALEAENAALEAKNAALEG
# T22: 4H58-AA
# T22 chain: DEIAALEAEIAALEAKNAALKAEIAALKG
# T23: 4H895-AA
# T23 chain: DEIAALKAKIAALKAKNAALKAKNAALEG
# T24: 4H_APH
# T24 chain: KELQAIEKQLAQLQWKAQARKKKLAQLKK
# T25: 4H_BCR
# T25 chain: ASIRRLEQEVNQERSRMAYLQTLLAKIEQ
# T26: P2-AA-12HAA-R
# T26 chain: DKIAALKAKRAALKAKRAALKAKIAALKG
# Tests used:
# [1] = target: T1, 4H687-AA; assay: two-hybrid library CCmax;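 note: natural log of median RNA to DNA barcode read ratio; higher means stronger binding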
# [2] = target: T2, 4H717-AA; assay: two-hybrid library CCmax; conditions: mean of both orientations;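 note: natural log of median RNA to DNA barcode read ratio; higher means stronger binding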
# [3] = target: T3, 4H797-AA; assay: two-hybrid library CCmax;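 note: natural log of median RNA to DNA barcode read ratio; higher means stronger binding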
# [4] = target: T4, 4H883-AA; assay: two-hybrid library CCmax; conditions: mean of both orientations;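 note: natural log of median RNA to DNA barcode read ratio; higher means stronger binding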
# [5] = target: T5, 4H918-AA; assay: two-hybrid library CCmax; conditions: mean of both orientations;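 note: natural log of median RNA to DNA barcode read ratio; higher means stronger binding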
# [6] = target: T6, 4H953-AA; assay: two-hybrid library CCmax; conditions: mean of both orientations;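 note: natural log of median RNA to DNA barcode read ratio; higher means stronger binding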
# [7] = target: T7, 4H967-AA; assay: two-hybrid library CCmax; conditions: mean of both orientations
# [8] = target: T8, P9bH1; assay: two-hybrid library CCNG1
# [9] = target: T9, O4-bA; assay: two-hybrid library CCNG1
# [10] = target: T10, O5-bA; assay: two-hybrid library CCNG1
# [11] = target: T11, O6-bA; assay: two-hybrid library CCNG1
# [12] = target: T12, O7-bA; assay: two-hybrid library CCNG1
# [13] = target: T13, O8-bA; assay: two-hybrid library CCNG1
# [14] = target: T14, O9-bA; assay: two-hybrid library CCNG1
# [15] = target: T15, 4H355-AA; assay: two-hybrid library CCmax
# [16] = target: T16, 4H3651-AA; assay: two-hybrid library CCmax; conditions: mean of both orientations
# [17] = target: T17, 4H3705-AA; assay: two-hybrid library CCmax; conditions: mean of both orientations
# [18] = target: T18, 4H3782-AA; assay: two-hybrid library CCmax; conditions: mean of both orientations
# [19] = target: T19, 4H465-AA; assay: two-hybrid library CCmax; conditions: mean of both orientations
# [20] = target: T20, 4H486-AA; assay: two-hybrid library CCmax; conditions: mean of both orientations
# [21] = target: T21, 4H535-AA; assay: two-hybrid library CCmax
# [22] = target: T22, 4H58-AA; assay: two-hybrid library CCmax; conditions: mean of both orientations
# [23] = target: T23, 4H895-AA; assay: two-hybrid library CCmax; conditions: mean of both orientations
# [24] = target: T24, 4H_APH; assay: two-hybrid library CCmax
# [25] = target: T25, 4H_BCR; assay: two-hybrid library CCmax; conditions: mean of both orientations
# [26] = target: 4H_GCN4; assay: two-hybrid library CCmax
# [27] = target: GCN2_T; assay: two-hybrid library CCmax
# [28] = target: T26, P2-AA-12HAA-R; assay: two-hybrid library CCmax
# Sequence of 4H_GCN4 (chain, as listed by the source): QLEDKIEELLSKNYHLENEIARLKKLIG
binder,measurement,setting,value
DEIAALKAENAALEAKIAALKAKNAALEG [4H687-AA],interaction score,[1],-1.1
same,interaction score,[2],-0.487
same,interaction score,[3],-1.46
same,interaction score,[4],-1.77
same,interaction score,[5],-0.666
same,interaction score,[6],-1.39
same,interaction score,[7],1.97
DENKQLEKKNEELKREIWELEKEIEQLEQ [P9bH1],interaction score,[8],-0.482
DKIAQLKQEIAELEQKNAELKWKNAQLKQ [O4-bA],interaction score,[9],0.158
same,interaction score,[10],-0.0834
same,interaction score,[11],1.17
same,interaction score,[12],0.351
same,interaction score,[13],-1.68
same,interaction score,[14],-0.232
DEIAALEAKIAALKAKIAALEAENAALEG [4H355-AA],interaction score,[15],0.592
same,interaction score,[16],0.086
same,interaction score,[17],-1.7
same,interaction score,[18],0.393
same,interaction score,[19],-1.96
same,interaction score,[20],-0.342
same,interaction score,[21],-0.775
same,interaction score,[22],1.08
same,interaction score,[23],-0.0681
same,interaction score,[24],-0.88
same,interaction score,[25],-1.56
same,interaction score,[26],-1.7
same,interaction score,[27],-2.04
same,interaction score,[28],-2.32
